Consider 38 molecules from publication PMC10786891, “Massively parallel profiling of RNA-targeting CRISPR-Cas13d”.

T1: EsCas13d, nuclease-dead (Eubacterium siraeum, UniProt B0MS50, R295A;H300A;R849A;H854A)
T1 sequence: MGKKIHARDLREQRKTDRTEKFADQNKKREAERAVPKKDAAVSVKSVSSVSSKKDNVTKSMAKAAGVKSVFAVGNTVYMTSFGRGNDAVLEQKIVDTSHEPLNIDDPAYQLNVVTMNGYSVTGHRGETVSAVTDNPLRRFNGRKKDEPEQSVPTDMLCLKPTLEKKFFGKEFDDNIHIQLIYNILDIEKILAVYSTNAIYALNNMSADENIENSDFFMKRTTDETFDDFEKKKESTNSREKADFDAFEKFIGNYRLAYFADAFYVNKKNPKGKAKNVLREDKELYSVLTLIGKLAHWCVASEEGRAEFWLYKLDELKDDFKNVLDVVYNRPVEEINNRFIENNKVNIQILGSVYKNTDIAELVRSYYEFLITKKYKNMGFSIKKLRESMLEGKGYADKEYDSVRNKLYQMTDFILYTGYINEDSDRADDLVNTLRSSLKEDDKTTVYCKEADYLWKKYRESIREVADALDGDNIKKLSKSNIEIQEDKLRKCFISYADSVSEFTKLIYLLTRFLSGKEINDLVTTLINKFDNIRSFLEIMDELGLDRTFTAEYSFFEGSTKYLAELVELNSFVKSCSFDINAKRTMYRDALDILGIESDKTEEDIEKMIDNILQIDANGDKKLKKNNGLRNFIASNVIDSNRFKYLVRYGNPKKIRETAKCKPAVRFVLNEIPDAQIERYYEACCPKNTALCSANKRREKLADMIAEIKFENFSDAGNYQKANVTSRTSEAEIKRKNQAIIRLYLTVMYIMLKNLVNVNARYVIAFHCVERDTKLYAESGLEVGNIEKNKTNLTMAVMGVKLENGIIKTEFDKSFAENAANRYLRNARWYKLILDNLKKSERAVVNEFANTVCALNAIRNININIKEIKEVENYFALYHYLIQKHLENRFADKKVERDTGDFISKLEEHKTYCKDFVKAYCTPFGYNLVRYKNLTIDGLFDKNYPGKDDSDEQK

B1: target 1 MT 5'PFS UUA 3'PFS UAA (mixed)
RNA 1: CACCCGUGCAAAAAUGCAGGGGUCUAAAACUGAGCGGAUAACCUCUCUAUGG
RNA 2: GGGAAUGGAUCCACAUCUACGAAUUCUUACCAUAGAGAGGUUAUCCGCUCAUAAAGAUCGGAAGAGCACACGU
B2: target 1 MT 5'PFS GGC 3'PFS CCU (mixed)
RNA 1: B1 RNA 1
RNA 2: B1 RNA 2 with U27G, U28G, A29C, U52C, A53C, A54U
B3: target 1 MT 5'PFS GCG 3'PFS CCG (mixed)
RNA 1: B1 RNA 1
RNA 2: B1 RNA 2 with U27G, U28C, A29G, U52C, A53C, A54G
B4: target 1 C7A,U11G (mixed)
RNA 1: B1 RNA 1
RNA 2: B1 RNA 2 with U27G, U41G, C45A, U52C, A53C, A54G
B5: target 1 MT 5'PFS GCG 3'PFS AAC (mixed)
RNA 1: B1 RNA 1
RNA 2: B1 RNA 2 with U27G, U28C, A29G, U52A, A54C
B6: target 1 MT 5'PFS GUC 3'PFS AGU (mixed)
RNA 1: B1 RNA 1
RNA 2: B1 RNA 2 with U27G, A29C, U52A, A53G, A54U
B7: target 1 MT 5'PFS UUA 3'PFS CUG (mixed)
RNA 1: B1 RNA 1
RNA 2: B1 RNA 2 with U52C, A53U, A54G
B8: target 1 MT 5'PFS CCC 3'PFS UUC (mixed)
RNA 1: B1 RNA 1
RNA 2: B1 RNA 2 with U27C, U28C, A29C, A53U, A54C
B9: target 1 MT 5'PFS GUC 3'PFS AGC (mixed)
RNA 1: B1 RNA 1
RNA 2: B1 RNA 2 with U27G, A29C, U52A, A53G, A54C
B10: target 1 MT 5'PFS UCA 3'PFS UCC (mixed)
RNA 1: B1 RNA 1
RNA 2: B1 RNA 2 with U28C, A53C, A54C
B11: target 1 MT 5'PFS CUG 3'PFS UUG (mixed)
RNA 1: B1 RNA 1
RNA 2: B1 RNA 2 with U27C, A29G, A53U, A54G
B12: target 1 MT 5'PFS GUU 3'PFS ACC (mixed)
RNA 1: B1 RNA 1
RNA 2: B1 RNA 2 with U27G, A29U, U52A, A53C, A54C
B13: target 1 MT 5'PFS GCG 3'PFS CCU (mixed)
RNA 1: B1 RNA 1
RNA 2: B1 RNA 2 with U27G, U28C, A29G, U52C, A53C, A54U
B14: target 1 MT 5'PFS GUA 3'PFS UUU (mixed)
RNA 1: B1 RNA 1
RNA 2: B1 RNA 2 with U27G, A53U, A54U
B15: target 1 MT 5'PFS GCG 3'PFS AAU (mixed)
RNA 1: B1 RNA 1
RNA 2: B1 RNA 2 with U27G, U28C, A29G, U52A, A54U
B16: target 1 MT 5'PFS AGA 3'PFS CAA (mixed)
RNA 1: B1 RNA 1
RNA 2: B1 RNA 2 with U27A, U28G, U52C
B17: target 1 MT 5'PFS CCC 3'PFS UUU (mixed)
RNA 1: B1 RNA 1
RNA 2: B1 RNA 2 with U27C, U28C, A29C, A53U, A54U
B18: target 1 MT 5'PFS GUA 3'PFS UUA (mixed)
RNA 1: B1 RNA 1
RNA 2: B1 RNA 2 with U27G, A53U
B19: target 1 MT 5'PFS GUA 3'PFS UUC (mixed)
RNA 1: B1 RNA 1
RNA 2: B1 RNA 2 with U27G, A53U, A54C
B20: target 1 MT 5'PFS GUC 3'PFS CAU (mixed)
RNA 1: B1 RNA 1
RNA 2: B1 RNA 2 with U27G, A29C, U52C, A54U
B21: target 1 insA 3' of 8,insA 3' of 6 (mixed)
RNA 1: B1 RNA 1
RNA 2: GGGAAUGGAUCCACAUCUACGAAUUCGUACCAUAGAGAGGUUAUACCAGCUCACCGAGAUCGGAAGAGCACACGU
B22: target 1 MT 5'PFS GCG 3'PFS AAA (mixed)
RNA 1: B1 RNA 1
RNA 2: B1 RNA 2 with U27G, U28C, A29G, U52A
B23: target 1 MT 5'PFS UCA 3'PFS UCG (mixed)
RNA 1: B1 RNA 1
RNA 2: B1 RNA 2 with U28C, A53C, A54G
B24: target 1 MT 5'PFS CCG 3'PFS UCG (mixed)
RNA 1: B1 RNA 1
RNA 2: B1 RNA 2 with U27C, U28C, A29G, A53C, A54G
B25: target 1 MT 5'PFS GUC 3'PFS AGG (mixed)
RNA 1: B1 RNA 1
RNA 2: B1 RNA 2 with U27G, A29C, U52A, A53G, A54G
B26: target 1 MT 5'PFS GCG 3'PFS AAG (mixed)
RNA 1: B1 RNA 1
RNA 2: B1 RNA 2 with U27G, U28C, A29G, U52A, A54G
B27: target 1 MT 5'PFS CCC 3'PFS UUG (mixed)
RNA 1: B1 RNA 1
RNA 2: B1 RNA 2 with U27C, U28C, A29C, A53U, A54G
B28: target 1 MT 5'PFS GGG 3'PFS ACU (mixed)
RNA 1: B1 RNA 1
RNA 2: B1 RNA 2 with U27G, U28G, A29G, U52A, A53C, A54U
B29: target 1 MT 5'PFS CCG 3'PFS UCC (mixed)
RNA 1: B1 RNA 1
RNA 2: B1 RNA 2 with U27C, U28C, A29G, A53C, A54C
B30: target 1 MT 5'PFS GGU 3'PFS CCU (mixed)
RNA 1: B1 RNA 1
RNA 2: B1 RNA 2 with U27G, U28G, A29U, U52C, A53C, A54U
B31: target 1 U11C,G17U (mixed)
RNA 1: B1 RNA 1
RNA 2: B1 RNA 2 with U27G, G35U, U41C, U52C, A53C, A54G
B32: target 1 MT 5'PFS GUC 3'PFS CAG (mixed)
RNA 1: B1 RNA 1
RNA 2: B1 RNA 2 with U27G, A29C, U52C, A54G
B33: target 1 MT 5'PFS UUA 3'PFS CUA (mixed)
RNA 1: B1 RNA 1
RNA 2: B1 RNA 2 with U52C, A53U
B34: target 1 MT 5'PFS GUA 3'PFS UUG (mixed)
RNA 1: B1 RNA 1
RNA 2: B1 RNA 2 with U27G, A53U, A54G
B35: target 1 MT 5'PFS GUU 3'PFS ACU (mixed)
RNA 1: B1 RNA 1
RNA 2: B1 RNA 2 with U27G, A29U, U52A, A53C, A54U
B36: target 1 MT 5'PFS AUA 3'PFS ACU (mixed)
RNA 1: B1 RNA 1
RNA 2: B1 RNA 2 with U27A, U52A, A53C, A54U
B37: target 1 MT 5'PFS GUC 3'PFS AGA (mixed)
RNA 1: B1 RNA 1
RNA 2: B1 RNA 2 with U27G, A29C, U52A, A53G
B38: target 1 MT 5'PFS UUA 3'PFS CUC (mixed)
RNA 1: B1 RNA 1
RNA 2: B1 RNA 2 with U52C, A53U, A54C

Where a chain is given by its changes, count along the chain named. In names and notes the source's numbering stands.

In the data set the target is T1, EsCas13d, nuclease-dead. The experiment in a line: crRNA (strand 1, pre-loaded); Mg2+; 40 mM Tris-HCl pH 7.5, 150 mM NaCl, 6 mM MgCl2, 1 mM DTT, 0.1% Tween-20, 0.2 mg/ml BSA; 25 C; 10 min per concentration, then washed. Particulars: tags: His6-TwinStrep-SUMO cleaved; N-terminal SNAP kept (SNAP-Surface 488); label: 3' end held by stalled T7 RNA polymerase.
A word on the Kd: it is the concentration at which binding is half-saturated. The low end stands for a tighter complex, the high end for a looser complex. The molecule B1 came in with a Kd of 21.5 ± 7 nM.
In the case of B2 it was 15.9 ± 4.7 nM; in that of B3, 12.4 ± 3.4 nM.
In the case of B4 it was 13.4 ± 0.6 nM; in that of B5, 32 ± 15 nM.
As for B6, the figure is 20.6 ± 2.7 nM; as for B7, 14.9 ± 2.6 nM.
Consider B8, for which the Kd is about 15 nM.
As for B9, the figure is 9.1 ± 1.75 nM.
In the case of B10 it was 12.5 ± 4.5 nM; in that of B11, 4.45 ± 0.6 nM.
As for B12, the figure is 17.6 ± 3.3 nM; as for B13, 18.5 ± 6.5 nM; as for B14, 8.21 ± 0.5 nM.
On to B15, for which the Kd was found to be 33.5 ± 9.5 nM.
In the case of B16 it was about 37 nM; in that of B17, 9.7 ± 4.5 nM; in that of B18, 9.85 ± 1.15 nM.
In the case of B19 it was 9.25 ± 1.1 nM; in that of B20, 24.5 ± 9 nM.
As for B21, the figure is 13.8 ± 0.7 nM.
In the case of B22, the Kd is about 37 nM.
B23 registered a Kd of 31.5 ± 14.5 nM.
In the case of B24 it was 3.4 ± 1.3 nM; in that of B25, 46 ± 9 nM; in that of B26, 25 ± 7 nM.
As for B27, the figure is about 11.5 nM; as for B28, 14.2 ± 1.3 nM.
In the case of B29 it was 5.6 ± 2.35 nM; in that of B30, 75.5 ± 30.5 nM; in that of B31, 65 ± 27 nM.
B32 came in with a Kd of about 31.5 nM.
In the case of B33 it was about 47 nM; in that of B34, 8.11 ± 0.52 nM; in that of B35, 15.8 ± 1.8 nM.
As for B36, the figure is 15.5 ± 4 nM; as for B37, 19.5 ± 3.85 nM.
In the case of B38 it was 16 ± 4 nM.
